Test [1] concerns the target purified tubulin dimer. Description: SPR.
Test [2] deals with purified tubulin dimer. Description: SPR; VASH1 K168E/C169S. As to conditions: complex. For orientation: In SPR one partner is held on a chip, and binding of the other changes the refractive index at the surface.
Test [3] concerns the target purified tubulin dimer. The test can be described thus: SPR; VASH1 R222A/C169S. To be noted: complex.

From publication PMC6937246 come the findings set out here.

VASH1-SVBP complex, VASH1 mutated at R222, sequence (Q7L8A9 44-315, change not shown): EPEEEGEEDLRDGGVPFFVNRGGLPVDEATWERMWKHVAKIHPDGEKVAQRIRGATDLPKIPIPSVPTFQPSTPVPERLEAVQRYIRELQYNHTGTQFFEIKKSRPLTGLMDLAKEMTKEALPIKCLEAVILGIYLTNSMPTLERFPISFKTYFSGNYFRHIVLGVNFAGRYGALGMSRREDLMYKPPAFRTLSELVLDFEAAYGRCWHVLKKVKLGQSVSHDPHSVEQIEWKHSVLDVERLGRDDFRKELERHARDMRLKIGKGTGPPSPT
VASH1-SVBP complex, VASH1 mutated at R222, sequence (Q8N300 whole entry, change not shown): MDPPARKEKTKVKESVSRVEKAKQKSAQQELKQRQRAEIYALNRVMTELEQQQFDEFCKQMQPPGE
VASH1-SVBP complex, VASH1 mutated at K168, sequence (Q7L8A9 44-315, change not shown): as the sequence (Q7L8A9 44-315, change not shown) above
VASH1-SVBP complex, VASH1 mutated at K168, sequence (Q8N300 whole entry, change not shown): as the sequence (Q8N300 whole entry, change not shown) above

VASH1 H204A/C169S-SVBP: the Kd in test [1] is 750 nM.

In test [1], VASH1 S221A/C169S-SVBP returned a Kd of 570 nM.

Regarding “VASH1-SVBP complex, VASH1 mutated at K168 (from UniProt Q7L8A9 44-315; Q8N300 1-66)”, the Kd in test [2] was 1140 nM.

For the substance VASH1 C169A-SVBP, the Kd in test [1] worked out at 990 nM.

Take VASH1 C169S-SVBP: in test [1], the Kd was found to be 470 nM.

As to VASH1 R222E/R223E/C169S-SVBP, in test [1], the Kd worked out at 1310 nM.

“VASH1-SVBP complex, VASH1 mutated at R222 (from UniProt Q7L8A9 44-315; Q8N300 1-66)” had a Kd in test [3] of 1400 nM.

A word on the Kd: it is the free concentration of one partner at which half of the binding sites on the other are occupied at equilibrium, for simple one-to-one binding. A low value points to a tighter complex.
